Data set [1] deals with integrin αvβ3. Nature of the data set: in vivo. Also noted: species or system mice. To be noted: mouse, iv; for Liver uptake, blocking group / Radioactivity in the blood, blocking group / U87MG tumor uptake, blocking: 10 mg/kg. How it is done:
(§1) PET scans at various time points post-injection (p.i.), as well as quantitative region-of-interest (ROI) analysis of the PET data, were performed as described previously.^14 Coronal and transaxial PET slices that contain the U87MG tumors are shown in FIG. 5A, and the quantitative data are shown in FIGS. 5B and 5C. […] PET scans were performed using an Inveon microPET/microCT rodent model scanner (Siemens Medical Solutions USA, Inc.). Each U87MG tumor-bearing mouse was injected with 5-10 MBq of the PET tracer via tail vein and 5 minute static PET scans were performed at various time points post-injection (p.i.). The images were reconstructed using a maximum a posteriori (MAP) algorithm, with no attenuation or scatter correction. For each microPET scan, three-dimensional (3D) regions-of-interest (ROIs) were drawn over the tumor and major organs by using vendor software (Inveon Research Workplace [IRW]) on decay-corrected whole-body images. Assuming a tissue density of 1 g/mL, the ROIs were converted to MBq/g using a conversion factor (pre-determined using a 20 mL centrifuge tube filled with ˜37 MBq of ^64CuCl2 as a phantom), and then divided by the total administered radioactivity to obtain an image ROI-derived percentage injected dose per gram of tissue (% ID/g).

Data set [2] is described as follows: in vivo. Also noted: species or system mice. To be noted: female, nude, mouse, iv, 10 mg/kg, total radioactivity. On the procedure:
as §1

In general, tissue uptake refers to the share of the injected amount in each gram of the tissue. Regarding `N=C(N)NCCC(=O)N(CC(=O)NCCN(CC(N)=O)C(=O)CC(=O)O)C[C@H](Cc1ccccc1)NC(=O)CCCCCNC(=O)CN1CCN(CC(=O)O)CCN(CC(=O)O)CCN(CC(=O)O)CC1` [^64Cu-γ-AA2, metal not drawn], the clearance route entry in data set [1] was “both hepatobiliary and renal clearance”. In data set [1] (0.5 h), the “Liver uptake, blocking group” value is given as 7.2±2.0 % ID/g; the U87MG tumor uptake came to 0.9±0.3 % ID/g; the tumor/muscle ratio came to 3.8±0.9. Moreover, in data set [1] (2 h), the “Liver uptake, blocking group” value was determined as 6.1±1.6 % ID/g; the “Radioactivity in the blood, blocking group” value (“Radioactivity in the blood” for short) is reported as 0.4±0.1 % ID/g; the “U87MG tumor uptake, blocking” value is 0.4±0.1 % ID/g; the U87MG tumor uptake turned out to be 1.0±0.2 % ID/g. Further, the tumor/muscle ratio in data set [1] (2 h) was 4.8±1.8. Also, in data set [1] (4 h), the “Liver uptake, blocking group” value is reported as 5.3±1.3 % ID/g; the “Radioactivity in the blood” value was determined as 0.4±0.1 % ID/g; the “U87MG tumor uptake, blocking” value stood at 0.4±0.1 % ID/g; the U87MG tumor uptake is recorded as 1.1±0.2 % ID/g. The tumor/muscle ratio in data set [1] (4 h) was found to be 5.8±1.4. In data set [1] (24 h), the “Liver uptake, blocking group” value was determined as 4.0±0.6 % ID/g; the “Radioactivity in the blood” value worked out at 0.4±0.1 % ID/g; the “U87MG tumor uptake, blocking” value is 0.4±0.1 % ID/g; the U87MG tumor uptake worked out at 0.7±0.2 % ID/g. The tumor/muscle ratio in data set [1] (24 h) was 8.3±3.9. The tissue uptake at 0.5 h in data set [2] came to 0.5 ± 0.1 %ID/g.

The values are drawn from patent publication US9234007B2, “RGD mimetic γ-AApeptides and methods of use” (UNIVERSITY OF SOUTH FLORIDA, priority 2012, dated 2016).
